In the supplement of paper PMC10126150:
± gives the standard deviation of the averaged measurements.

Tested on: ATP
Assay: switch fluorescence ratio, 500 uM ATP over buffer (Cy3 cluster intensity, sum of 5 cycles each) (fold (ratio)); higher = stronger signal-on switching upon ATP binding; sequences stand for … in TCGTCGGCAGCGTCAGATGTGTATAAGAGACAGTTTTTTTTTTTTTTTTTTTTTTTTT…TC
Settings: aptamer strand: ATP DNA aptamer (quencher-CACCTGGGGGAGTATTGCGGAGGAAGG + anchor), 100 nM annealed; ATP concentration: 500 uM
Summary of the method: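 Clusters carrying Cy3-labelled switching strands on a modified Illumina MiSeq flow-cell were annealed to 100 nM quencher-labelled ATP aptamer and imaged in selection buffer. They were imaged again after 15 min with 500 uM ATP at 22 °C, over five buffer/ATP cycles with NaOH stripping and re-annealing in between. For each cluster, the fluorescence ratio is the summed Cy3 intensity of the target cycles divided by that of the buffer cycles, averaged per switch-domain sequence. Clusters outside 100-1000 RFU were left out.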
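Note: ATP exposure 15 min at 22 °C before imaging.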

Going from GAAGCACCGG to ATTTCTAGAA, the switch fluorescence ratio falls from 1.08 ± 0.026 to 1.02 ± 0.015.

TGATGTCGGG and CTGGTAGGGT are within error of each other in switch fluorescence ratio: 0.999 ± 0.034 for the first, 1.02 ± 0.02 for the second.

Going from GGGTTTTTTT to GATCACTGTA, the switch fluorescence ratio rises from 0.998 ± 0.044 to 1.15 ± 0.036.

GCCTGTATAG and GGCTGATACG are within error of each other in switch fluorescence ratio: 0.9958 ± 0.0052 for the first, 1.04 ± 0.059 for the second.

First: TTATAAGGG
Second: AAGGTGGGAC
The switch fluorescence ratio of the first is lower: 0.9843 ± 0.0022 for the first, 1.02 ± 0.021 for the second.

TCGTGATGTA and CGGATCGTCG are within error of each other in switch fluorescence ratio: 0.974 ± 0.014 for the first, 0.984 ± 0.038 for the second.

Going from CGATCGGATT to CCAGGTTGTT, the switch fluorescence ratio rises from 1.01 ± 0.017 to 1.551 ± 0.0043.

TTGGCAGTG and GCAGGGCGCC are within error of each other in switch fluorescence ratio: 0.993 ± 0.019 for the first, 1.01 ± 0.026 for the second.

First: AGGGCTTGCT
Second: ATATTTACCG
The switch fluorescence ratio of the first is lower: 0.987 ± 0.038 for the first, 1.04 ± 0.011 for the second.

GTAAAAATTT and TAATTATCTT are within error of each other in switch fluorescence ratio: 1.06 ± 0.11 for the first, 0.979 ± 0.058 for the second.

Compared with AACCAGGGGG, ATCGTCGGTT is lower in switch fluorescence ratio: 1.058 ± 0.0084 for the first, 0.973 ± 0.013 for the second.

ATAGTGGGTG and TTTCCGTGAG are within error of each other in switch fluorescence ratio: 0.997 ± 0.037 for the first, 1.63 ± 0.98 for the second.

First: GGGTTCCAGG
Second: GAAGATGGTG
The switch fluorescence ratio of the first is higher: 1.26 ± 0.098 for the first, 0.963 ± 0.037 for the second.

CTGGGTCTTT and GTGGTTTGTT are within error of each other in switch fluorescence ratio: 0.99 ± 0.015 for the first, 1.01 ± 0.046 for the second.

GTTTTTGGTC and ATAAGGAGTG are within error of each other in switch fluorescence ratio: 0.974 ± 0.02 for the first, 0.996 ± 0.021 for the second.

TAAGGTTTGG and CGATCCCGGG are within error of each other in switch fluorescence ratio: 0.9862 ± 0.0092 for the first, 1.07 ± 0.11 for the second.

First: GGATTAGGCG
Second: TAGCTCTAGT
The switch fluorescence ratio of the first is lower: 0.981 ± 0.018 for the first, 1.016 ± 0.0044 for the second.

GGGGGCCAGG and GTGAAGTATG are the same in switch fluorescence ratio: 1.02 ± 0.073 for the first, 1.016 ± 0.00074 for the second.

CATAGATGGA and TTATCGAGTT are the same in switch fluorescence ratio: 1.03 ± 0.036 for the first, 1.03 ± 0.015 for the second.

AACTGTGTG and AGGGGGAGCT are within error of each other in switch fluorescence ratio: 0.987 ± 0.043 for the first, 1.005 ± 0.0056 for the second.

Compared with TATTTTGAAC, GTAGGGCGCG is lower in switch fluorescence ratio: 1.0289 ± 4.6e-05 for the first, 1.021 ± 0.0035 for the second.

TTTGCGGGTG and GGATTCTTGG are within error of each other in switch fluorescence ratio: 1.6 ± 0.91 for the first, 0.977 ± 0.024 for the second.

Going from ACGTACTACT to AGTGAGAATT, the switch fluorescence ratio falls from 1.3895 ± 0.00013 to 1.013 ± 0.01.

AGGGGTTTTG and GCTGAGGGTG are within error of each other in switch fluorescence ratio: 0.989 ± 0.022 for the first, 1.01 ± 0.028 for the second.

TCATAGGTAC and CGGAGGTGTA are within error of each other in switch fluorescence ratio: 1.04 ± 0.031 for the first, 1.4 ± 0.67 for the second.

AATCTCGTAA and CGCTATTTTA are within error of each other in switch fluorescence ratio: 1.02 ± 0.023 for the first, 1.04 ± 0.039 for the second.

First: ATTGGGGTAT
Second: CATTTAGCAC
The switch fluorescence ratio of the first is lower: 1 ± 0.03 for the first, 1.131 ± 0.0021 for the second.

Compared with GGGGCCGTCA, TTTATCTTCG is higher in switch fluorescence ratio: 0.987 ± 0.031 for the first, 1.04 ± 0.017 for the second.

CGCTAATCAG and TTGTGTACCG are within error of each other in switch fluorescence ratio: 1.05 ± 0.043 for the first, 0.96 ± 0.048 for the second.

First: AGAATAGAGT
Second: TACCTACTCG
The switch fluorescence ratio of the first is lower: 0.97 ± 0.038 for the first, 1.18 ± 0.12 for the second.

TTGGAGAGGT and GGTTCTTGG are within error of each other in switch fluorescence ratio: 1.02 ± 0.019 for the first, 0.995 ± 0.062 for the second.

Compared with AAGACTCGGT, AACATCTAGC is higher in switch fluorescence ratio: 0.9518 ± 0.0012 for the first, 0.994 ± 0.031 for the second.

GACTATGGTT and TTCCCTAGTT are within error of each other in switch fluorescence ratio: 0.986 ± 0.051 for the first, 1.004 ± 0.0029 for the second.

TTTTGGTTGC and TATGACACTT are within error of each other in switch fluorescence ratio: 1.02 ± 0.032 for the first, 1.03 ± 0.047 for the second.

AGCCTACGGG and CTGCTTAAGG are within error of each other in switch fluorescence ratio: 1.0466 ± 0.00084 for the first, 1.04 ± 0.065 for the second.

GTTGTGCTTT and CCTGGGTCTG are within error of each other in switch fluorescence ratio: 0.984 ± 0.011 for the first, 1.001 ± 0.006 for the second.

Going from TTAAGAGGTC to CTCTGTAGGC, the switch fluorescence ratio rises from 0.979 ± 0.018 to 1.87 ± 0.31.

GTGTATAGGA and TTAAGCTTTT are within error of each other in switch fluorescence ratio: 0.98611 ± 0.00034 for the first, 0.989 ± 0.012 for the second.

TGTCGCTCGT and GGCCGTTGGG are within error of each other in switch fluorescence ratio: 0.992 ± 0.043 for the first, 0.965 ± 0.016 for the second.

GGGGTTTGTA and TGCTTTACGG are within error of each other in switch fluorescence ratio: 0.98 ± 0.027 for the first, 1.009 ± 0.0082 for the second.

TTTATCCGGG and TTGGTAGGGG are within error of each other in switch fluorescence ratio: 0.99 ± 0.05 for the first, 1.03 ± 0.077 for the second.

CGAGGGATGG and GCTAAAGGTC are within error of each other in switch fluorescence ratio: 0.977 ± 0.05 for the first, 1.05 ± 0.044 for the second.

ACGTTGCTTA and AAGTATTTAG are within error of each other in switch fluorescence ratio: 1.007 ± 0.0052 for the first, 0.994 ± 0.024 for the second.

AAGGCAAGAT and GGGTTTGTGT are within error of each other in switch fluorescence ratio: 1.04 ± 0.064 for the first, 1.01 ± 0.019 for the second.

GCTGCATGTA and GTGGGGGACG are within error of each other in switch fluorescence ratio: 1.02 ± 0.028 for the first, 0.982 ± 0.021 for the second.

First: ACTACGTTAC
Second: AATCATGTAG
The switch fluorescence ratio of the first is higher: 2.88 ± 0.039 for the first, 1.01 ± 0.011 for the second.

GAATGGGACA and TTCGTGGCCC are within error of each other in switch fluorescence ratio: 1.13 ± 0.26 for the first, 0.9572 ± 0.003 for the second.

CTGGGGGATG and ATAATTCGGG are within error of each other in switch fluorescence ratio: 0.9863 ± 0.0027 for the first, 1 ± 0.049 for the second.

Compared with CCGCGACAGG, TTTTTTGCCT is lower in switch fluorescence ratio: 3.04 ± 0.22 for the first, 1.01 ± 0.038 for the second.

First: TATCATGTGA
Second: AAACGTAACG
The switch fluorescence ratio of the first is lower: 1.01 ± 0.011 for the first, 1.07 ± 0.029 for the second.

ATTCTGGAAT and TTAGTACTGA are within error of each other in switch fluorescence ratio: 1.02 ± 0.06 for the first, 1.05 ± 0.035 for the second.

CGGGGTGCGA and TTGCATTAGG are within error of each other in switch fluorescence ratio: 1.02 ± 0.021 for the first, 1.28 ± 0.31 for the second.

Compared with CGTAGTTTTA, TTTTGTTGCT is lower in switch fluorescence ratio: 1.044 ± 0.0041 for the first, 0.956 ± 0.037 for the second.

ACAGATTAGT and GGGCTGGGGA are within error of each other in switch fluorescence ratio: 1 ± 0.024 for the first, 1.01 ± 0.033 for the second.

CCAAGTGGGC and TTTTGATGGC are within error of each other in switch fluorescence ratio: 1.03 ± 0.053 for the first, 1.01 ± 0.022 for the second.

CGAGTAAAAT and TTTATTTATT are within error of each other in switch fluorescence ratio: 1.08 ± 0.1 for the first, 0.998 ± 0.021 for the second.

ACTTATATA and TCGGGCAGGG are within error of each other in switch fluorescence ratio: 1.02 ± 0.022 for the first, 1.003 ± 0.0044 for the second.

CAAGGGGGGT and GTGTAAATGG are within error of each other in switch fluorescence ratio: 1 ± 0.019 for the first, 1.01 ± 0.013 for the second.

First: CTGCAGATCG
Second: AACGGACTTA
The switch fluorescence ratio of the first is lower: 1.02 ± 0.06 for the first, 1.25 ± 0.044 for the second.

ATTATAGTCG and TTTATTGAGT are within error of each other in switch fluorescence ratio: 1.01 ± 0.036 for the first, 0.978 ± 0.048 for the second.

Going from CCAGGTTTGC to GCCAGGCCGA, the switch fluorescence ratio falls from 1.08 ± 0.067 to 0.979 ± 0.034.

TTTTGTTGT and TTAATCCCAG are within error of each other in switch fluorescence ratio: 0.987 ± 0.024 for the first, 1.02 ± 0.021 for the second.

Compared with TACTGGAAGG, AGTGGGTATT is higher in switch fluorescence ratio: 0.941 ± 0.019 for the first, 1.01 ± 0.016 for the second.

AGGGGGTACA and GGGCAGTTCG are within error of each other in switch fluorescence ratio: 1.01 ± 0.016 for the first, 1.02 ± 0.027 for the second.

First: CTTAGAAAGC
Second: TAAGGAAGGG
The switch fluorescence ratio of the first is higher: 1.05 ± 0.022 for the first, 1.004 ± 0.0075 for the second.

GCGGGTATGG and GGGAGCGCTT are within error of each other in switch fluorescence ratio: 1 ± 0.021 for the first, 1.03 ± 0.012 for the second.

TTTTATATGC and GCCATAGCCT are within error of each other in switch fluorescence ratio: 1.19 ± 0.27 for the first, 0.9953 ± 0.0084 for the second.

First: GTTTGTACAC
Second: AAGCTGTTAC
The switch fluorescence ratio of the first is lower: 0.986 ± 0.054 for the first, 1.6 ± 0.081 for the second.

ATTGTTACTT and TTTAAGTGAT are within error of each other in switch fluorescence ratio: 1.02 ± 0.019 for the first, 1.01 ± 0.057 for the second.

TTCGGCTGCA and ACGTAGGTTC are within error of each other in switch fluorescence ratio: 1.08 ± 0.064 for the first, 1.063 ± 0.0048 for the second.

Compared with CGTCCTCATG, ATATAACATT is lower in switch fluorescence ratio: 1.302 ± 0.0067 for the first, 1.05 ± 0.018 for the second.

AAAAGGACTT and TTAATCGTGT are within error of each other in switch fluorescence ratio: 0.994 ± 0.002 for the first, 0.995 ± 0.037 for the second.

GTTATTCCAA and CTTGCACCC are within error of each other in switch fluorescence ratio: 1.03 ± 0.028 for the first, 1.07 ± 0.024 for the second.

First: CGTATATAGT
Second: TAGGGTACCG
The switch fluorescence ratio of the first is lower: 1.01 ± 0.014 for the first, 1.06 ± 0.032 for the second.

Compared with TCCTAGGTTT, GCTTTAGTGG is lower in switch fluorescence ratio: 1 ± 0.015 for the first, 0.963 ± 0.012 for the second.

Going from TGGGTGTGGA to TAACAGGTGA, the switch fluorescence ratio rises from 1.01 ± 0.051 to 2.17 ± 0.085.

TGATGGCGGG and AAATTGAGGG are within error of each other in switch fluorescence ratio: 0.9917 ± 0.0042 for the first, 1.02 ± 0.061 for the second.

AAAGAGGGGA and CACTGCCTGC are within error of each other in switch fluorescence ratio: 1.03 ± 0.016 for the first, 1.08 ± 0.036 for the second.

GAGTGTGACT showed a switch fluorescence ratio of 0.97 ± 0.055.
